Assay results published in US20230265187A1 (published 2023).
Residue numbers refer to the chain shown, from its start.

Key:
[1] = target: T1, His-tagged cynomolgus monkey TIGIT (Acro Biosystems #TIT-05223) (cynomolgus monkey, UniProt A0A7N9I9V4 89-209); assay: ELISA, coated His-TIGIT, 1 ug/ml
T1 construct: Bought protein; also called cyno TIGIT; cynomolgus TIGIT; not shown: His tag

[2] = target: T2, his-tagged human TIGIT (Acro Biosystems #TIT-H52H3) (human, UniProt Q495A1 22-141); assay: ELISA, coated His-TIGIT, 1 ug/ml
T2 construct: Bought protein; also called His-tagged-TIGIT (human); not shown: his tag
T2 sequence (looked up): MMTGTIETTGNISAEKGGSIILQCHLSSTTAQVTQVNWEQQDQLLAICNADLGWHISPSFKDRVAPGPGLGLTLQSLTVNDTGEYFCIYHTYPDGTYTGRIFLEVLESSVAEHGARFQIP

[3] = target: T3, his-tagged murine TIGIT (Acro Biosystems #TIT-M52E6) (murine, UniProt P86176 29-148, limits assumed); assay: ELISA, coated His-TIGIT, 1 ug/ml
T3 construct: Bought protein; also called mouse his-tagged TIGIT; not shown: his tag
T3 sequence (looked up): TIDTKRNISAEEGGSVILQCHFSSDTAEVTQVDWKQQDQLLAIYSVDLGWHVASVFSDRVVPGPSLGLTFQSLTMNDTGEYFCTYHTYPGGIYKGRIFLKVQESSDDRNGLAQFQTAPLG

[4] = target: T4, human TIGIT on Jurkat cells (TIGIT/NFAT reporter Jurkat cells, BPS Bioscience #60538); Promega TIGIT Effector … (human, UniProt Q495A1 22-244); assay: flow cytometry, TIGIT/NFAT Jurkat cells, 10 ug/ml
T4 construct: whole, on cells; Same protein on two bought Jurkat lines (flow cytometry: BPS; bioassay: Promega); also called hu TIGIT cells; cells expressing human TIGIT
T4 sequence (looked up): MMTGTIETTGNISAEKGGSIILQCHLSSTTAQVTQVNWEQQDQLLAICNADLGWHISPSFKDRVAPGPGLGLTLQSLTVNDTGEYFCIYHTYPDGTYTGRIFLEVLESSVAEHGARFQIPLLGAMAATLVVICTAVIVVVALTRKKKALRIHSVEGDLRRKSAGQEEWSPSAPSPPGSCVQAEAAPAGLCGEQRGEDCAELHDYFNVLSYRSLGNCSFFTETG

[5] = target: T2, his-tagged human TIGIT (Acro Biosystems …); assay: SPR (Carterra LSA), scFv-Fc captured, His-TIGIT analyte
Method: Binding affinities of anti-TIGIT antibodies to human, cyno, and murine TIGIT were measured by Surface Plasmon Resonance (SPR) on a Carterra LSA instrument. Goat anti-human Fc antibody was amine coupled to a HC30M chip. ScFv-Fc supernatants were diluted 30-fold with HBSTE and were captured by the anti-human Fc coupled HC30M chip. A 1:2 dilution series of his-tagged human TIGIT, starting at 400 nM, was injected onto the chip for binding. A dilution series was also carried out for cyno TIGIT and murine TIGIT. Data were analyzed using the Carterra™ Kinetics software.

T1 sequence (A0A7N9I9V4 entry or part of it): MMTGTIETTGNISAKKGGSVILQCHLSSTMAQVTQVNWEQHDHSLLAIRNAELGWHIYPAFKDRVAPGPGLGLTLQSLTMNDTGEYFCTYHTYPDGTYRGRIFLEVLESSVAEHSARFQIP

B1: 43586p1.2.A4 (scFv, V domains shown)
VH: EVQLLESGGGLVQPGGSLRLSCAASGFTVSDHHMSWVRQAPGKGLEWVSGIDPGGKTYYVDSVKGRFTISRDNSKNTLYLQMNSLRAEDTAVYYCAREQYDWNDDMDVWGQGTTVTVSS
VL: QSVLTQPPSASGTPGQRVTISCSGSRSNVGDHYVSWYQQFPGTAPKLLIYANYQRPSGVPDRFSGSKSGTSASLAISGLQSEDEADHYCASWDASLNVWVFGGGTKLTVL
For B1, the “Elisa OD450” value [1] was 0.239 OD450, the “Elisa OD450” value [2] was 1.69 OD450 and the “Elisa OD450” value [3] was 1.82 OD450. For the same binder, the MFI [4] was 13700 MFI.

B2: 43645p1.B8 (scFv, V domains shown)
VH: EVQLLESGGGLVQPGGSLRLSCAASGFTFSDFWMSWVRQAPGKGLEWVSSIINIQTYDYATYYADSVKGRFTISRDNSKNTLYLQMNSLRAEDTAIYYCAKDVAPGLPGGMDVWGQGTTVTVSS
VL: QSVLTQPPSASGTPGQRVTISCSGSNSNIRNNFVSWYQHLPGMAPKLLIYGNSQRPSGVPDRFSGSKSGTSASLAISGLQSEDEADYYCTSWDFSVNGWVFGGGTKLTVL
For B2, the “Elisa OD450” value [1] was 1.38 OD450, the “Elisa OD450” value [2] was 1.76 OD450 and the “Elisa OD450” value [3] was 0.052 OD450. It also gave a Kd [5] of 0.0906 nM and an MFI [4] of 9410 MFI.

B3: 43645p1.F7 (scFv, V domains shown)
VH: B2 VH
VL: B2 VL with M43T
For B3, the “Elisa OD450” value [1] was 1.52 OD450, the “Elisa OD450” value [2] was 1.97 OD450 and the “Elisa OD450” value [3] was 0.489 OD450. For the same binder, the Kd [5] was 0.0741 nM and the MFI [4] was 15400 MFI.

B4: 43586p2.B03 (scFv, V domains shown)
VH: EVQLLESGGGWVQPGGSLRLSCAASGFTFIDYWMSWVRQAPGKGLEWVSSISWIGDTTFYADSVKGRFTISRDSSLNTVYLQMNSLRAEDTAVYYCAKHWTVYQYGMDVWGQGTTVTVSS
VL: QSVLTQPPSASGTPGQRVTISCSGGSSKIGSKYVHWYQQLPGTAPKLLIYKDDQRPSGVPDRFSGSKSGTSASLAISGLQSEDEADYYCAAWDDRVNAWVFGGGTKLTVL
With B4 the “Elisa OD450” value [1] was 0.047 OD450, the “Elisa OD450” value [2] was 1.16 OD450 and the “Elisa OD450” value [3] was 0.047 OD450. It also gave a Kd [5] of 67.3 nM and an MFI [4] of 6110 MFI.

B5: 43586p2.F10 (scFv, V domains shown)
VH: VESGGGLVQPGGSLRLSCAASGFTVSDHYVSWVRQAPGKGLEWVSTSSSTNWNDGRTYYADSVKGRFTISRDNSENTLYLQMNSLRAEDTAVYYCAKDQYKGNDYYYYGMDVWGQGTTVTVSS
VL: QSVLTQPPSASGTPGQRVTISCSASNSYIGTKYFYWYQQLPGTAPKLLIYLDSQRPSGVPDRFSGSKSGTSVSLAISGLQSEDEADYYCAFWDDHLHGWVFGGGTKLTVL
B5 was tested, and the “Elisa OD450” value [1] was 0.987 OD450, the “Elisa OD450” value [2] was 1.75 OD450 and the “Elisa OD450” value [3] was 1.29 OD450. It also gave an MFI [4] of 14400 MFI.

B6: 43645p1.F12 (scFv, V domains shown)
VH: EVQLLESGGGLVQPGGSLRLSCAASGFTFSDYWMSWVRQAPGKGLEWVSSINWNGDNTYYYADSVKGRFTISRDNSKNTLYLQMNSLRAEDTAVYYCAKSHTVLQYGMDVWGQGTTVTVSS
VL: QSVLTQPPSASGTPGQRVTISCSGSSSNIQSNYVYWYQQLPGTAPKLLIYGNHQRPSGVPDRFSGSKSDTSASLAISGLQSEDEADYYCATWDASLNVWVFGGGTKLTVL
With B6 the “Elisa OD450” value [1] was 0.069 OD450, the “Elisa OD450” value [2] was 0.477 OD450 and the “Elisa OD450” value [3] was 0.052 OD450. The MFI [4] was 4100 MFI.

B7: 43586p2.B05 (scFv, V domains shown)
VH: EVQLLESGGGLVQPGGSLRLSCAASGFTFSDYYMNWVRQAPGKGLEYVASINWNGGTTYYADSVKGRFTISRDNSKNTLYLQMSSLRAEDTAVYYCAKDQNWNFYYGMDVWGQGTTVTVSS
VL: QSVLTQPPSASGTPGQRVTISCSGGSSNIGNNFVSWYQQLPGTAPKLLIYNEIKRPSGVPDRFSASKSGTSASLAISGLQSEDEADYYCASWDGSLRGWVFGGGTKLTVL
For B7, the “Elisa OD450” value [1] was 1.32 OD450, the “Elisa OD450” value [2] was 1.84 OD450 and the “Elisa OD450” value [3] was 0.07 OD450. For the same binder, the Kd [5] was 0.119 nM and the MFI [4] was 9320 MFI.

B8: 43586p2.C01 (scFv, V domains shown)
VH: B7 VH with S84N
VL: B7 VL
With B8 the “Elisa OD450” value [1] was 1.32 OD450, the “Elisa OD450” value [2] was 1.81 OD450 and the “Elisa OD450” value [3] was 0.046 OD450. It also gave a Kd [5] of 0.151 nM and an MFI [4] of 7770 MFI.
